Here are results for 15 molecules from patent US20250163167A1 (SYNTHEKINE, published 2025).

To fix the notation:
T1: human IL-10 receptor (hIL-10R alpha and beta chains) on HEK-Blue IL-10 reporter cells (human, UniProt Q13651 22-578; Q08334 20-325)
T1 sequence 1: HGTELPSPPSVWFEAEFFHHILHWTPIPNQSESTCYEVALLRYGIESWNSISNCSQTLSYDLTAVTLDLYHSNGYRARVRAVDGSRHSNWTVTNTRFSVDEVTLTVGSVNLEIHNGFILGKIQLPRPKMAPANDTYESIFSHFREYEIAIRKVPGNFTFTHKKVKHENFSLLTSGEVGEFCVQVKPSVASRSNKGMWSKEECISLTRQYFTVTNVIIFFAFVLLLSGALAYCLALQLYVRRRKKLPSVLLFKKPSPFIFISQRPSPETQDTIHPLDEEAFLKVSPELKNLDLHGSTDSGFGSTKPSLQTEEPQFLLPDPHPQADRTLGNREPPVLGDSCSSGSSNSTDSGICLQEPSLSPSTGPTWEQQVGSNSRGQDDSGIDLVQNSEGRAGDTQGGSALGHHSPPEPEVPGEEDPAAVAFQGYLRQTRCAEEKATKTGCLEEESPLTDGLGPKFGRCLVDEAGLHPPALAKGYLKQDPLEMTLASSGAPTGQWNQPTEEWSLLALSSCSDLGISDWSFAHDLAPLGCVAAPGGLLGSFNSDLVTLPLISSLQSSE
T1 sequence 2: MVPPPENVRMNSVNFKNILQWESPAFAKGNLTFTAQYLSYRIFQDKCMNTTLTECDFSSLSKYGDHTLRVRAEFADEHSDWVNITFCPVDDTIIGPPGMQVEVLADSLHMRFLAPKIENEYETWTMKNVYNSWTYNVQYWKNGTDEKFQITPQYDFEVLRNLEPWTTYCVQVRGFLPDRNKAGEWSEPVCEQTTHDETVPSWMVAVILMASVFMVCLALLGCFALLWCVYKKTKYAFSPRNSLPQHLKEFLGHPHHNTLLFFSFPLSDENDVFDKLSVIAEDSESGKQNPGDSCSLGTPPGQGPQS

B1: IL10R binding molecule of SEQ ID NO: 286 (bispecific antibody)
chain: QVQLQESGGGSVQAGGSLRLSCTVSGYTYSSNCMGWFRQAPGKEREGVATIYTGGGNTYYADSVKGRFTISQDNAKNTVYLQMNNLKPEDTAMYYCAAEPLSRVYGGSCPTPTFDYWGQGTQVTVSSGGGSQVQLQESGGGSVQAGGSLRLSCAASRYTYNSYCMGWFRQAPGKEREGVATIDSDGMTRYADSVKGRFTISKDNAKNTLYLQMNSLKPEDTAMYYCAADADCTIAAMTTNPLGQGTQVTVSSASHHHHHH
B2: IL10R binding molecule of SEQ ID NO: 288 (bispecific antibody)
chain: QVQLQESGGGSVQAGGSLRLSCTVSGYTYSSNCMGWFRQAPGKEREGVATIYTGGGNTYYADSVKGRFTISQDNAKNTVYLQMNNLKPEDTAMYYCAAEPLSRVYGGSCPTPTFDYWGQGTQVTVSSGGGSQVQLQESGGGSVEAGGSLRLSCAASGYTHSSYCMGWFRQAPGKEREGVAAIDVDGSTTYADSVKGRFTISKDNAKNTLYLQMNSLKPEDTGMYYCAAEFADCSSNYFLPPGAVRYWGQGTQVTVSSASHHHHHH
B3: IL10R binding molecule of SEQ ID NO: 289 (bispecific antibody)
chain: QVQLQESGGGSVQAGGSLRLSCTVSGYTYSSNCMGWFRQAPGKEREGVATIYTGGGNTYYADSVKGRFTISQDNAKNTVYLQMNNLKPEDTAMYYCAAEPLSRVYGGSCPTPTFDYWGQGTQVTVSSGGGSQVQLQESGGGSVQAGGSLRLSCAASGYSYSSYCMGWFRQAPGKEREGVATIDSDGMTRYADSVKGRFTISKDNAKNTLYLQMNSLKPEDTAMYYCAAPLYDCDSGAVGRNPPYWGQGTQVTVSSASHHHHHH
B4: IL10R binding molecule of SEQ ID NO: 280 (bispecific antibody)
chain: QVQLQESGGGSVQAGGSLRLSCAVSGYAYSTYCMGWFRQAPGKEREGVAAIDSGGSTSYADSVKGRFTISKDNAKNTLYLRMNSLKPEDTAMYYCAAVPPPPDGGSCLFLGPEIKVSKADFRYWGQGTQVTVSSGGGSQVQLQESGGGSVQAGGSLRLSCTVSRYTASVNYMGWFRQAPGKEREGVATIFTGAGTTYYANSVKGRFTISRDNAKNTAYLQMNSLKPEDTAIYYCAVDFRGGLLYRPAYEYTYRGQGTQVTVSSASHHHHHH
B5: IL10R binding molecule of SEQ ID NO: 285 (bispecific antibody)
chain: QVQLQESGGGSVQAGGSLRLSCTVSGYTYSSNCMGWFRQAPGKEREGVATIYTGGGNTYYADSVKGRFTISQDNAKNTVYLQMNNLKPEDTAMYYCAAEPLSRVYGGSCPTPTFDYWGQGTQVTVSSGGGSQVQLQESGGGSVQAGGSLRLSCAASGYTYSSYCMGWFRQAPGKEREGVAHIDSDGSTSYADSVKGRFTISKDNAKNTLYLQMNSLKPEDTAMYYCAADPIPGPGYCDGGPNKYWGQGTQVTVSSASHHHHHH
B6: IL10R binding molecule of SEQ ID NO: 290 (bispecific antibody)
chain: QVQLQESGGGSVQAGGSLRLSCTVSGYTYSSNCMGWFRQAPGKEREGVATIYTGGGNTYYADSVKGRFTISQDNAKNTVYLQMNNLKPEDTAMYYCAAEPLSRVYGGSCPTPTFDYWGQGTQVTVSSGGGSQVQLQESGGGSVQTGGSLRLSCAASGYTYLRGCMGWFRQAPGKEREGVAVMDVVGDRRSYIDSVKGRFTISRDNAANSVYLQMDNLKPEDTAMYYCTAGPNCVGWRSGLDYWGQGTQVTVSSASHHHHHH
B7: IL10R binding molecule of SEQ ID NO: 279 (bispecific antibody)
chain: QVQLQESGGGSVQAGGSLRLSCAVSGYAYSTYCMGWFRQAPGKEREGVAAIDSGGSTSYADSVKGRFTISKDNAKNTLYLRMNSLKPEDTAMYYCAAVPPPPDGGSCLFLGPEIKVSKADFRYWGQGTQVTVSSGGGSQVQLQESGGGSVQAGGSLRLSCAASRYTYNSYCMGWFRQAPGKEREGVATIDSDGMTRYADSVKGRFTISKDNAKNTLYLQMNSLKPEDTAMYYCAADADCTIAAMTTNPLGQGTQVTVSSASHHHHHH
B8: IL10R binding molecule of SEQ ID NO: 283 (bispecific antibody)
chain: QVQLQESGGGSVQAGGSLRLSCAVSGYAYSTYCMGWFRQAPGKEREGVAAIDSGGSTSYADSVKGRFTISKDNAKNTLYLRMNSLKPEDTAMYYCAAVPPPPDGGSCLFLGPEIKVSKADFRYWGQGTQVTVSSGGGSQVQLQESGGGSVQTGGSLRLSCAASGYTYLRGCMGWFRQAPGKEREGVAVMDVVGDRRSYIDSVKGRFTISRDNAANSVYLQMDNLKPEDTAMYYCTAGPNCVGWRSGLDYWGQGTQVTVSSASHHHHHH
B9: IL10R binding molecule of SEQ ID NO: 258 (bispecific antibody)
chain: QVQLQESGGGSVQAGGSLRLSCAASRYLYSIDYMAWFRQSPGKEREPVAVIYTASGATFYPDSVKGRFTISQDNAKMTVYLQMNSLKSEDTAMYYCAAVRKTDSYLFDAQSFTYWGQGTQVTVSSGGGSQVQLQESGGGSVQAGGSLRLSCAASRYTYNSYCMGWFRQAPGKEREGVATIDSDGMTRYADSVKGRFTISKDNAKNTLYLQMNSLKPEDTAMYYCAADADCTIAAMTTNPLGQGTQVTVSSASHHHHHH
B10: IL10R binding molecule of SEQ ID NO: 284 (bispecific antibody)
chain: QVQLQESGGGSVQAGGSLRLSCTVSGYTYSSNCMGWFRQAPGKEREGVATIYTGGGNTYYADSVKGRFTISQDNAKNTVYLQMNNLKPEDTAMYYCAAEPLSRVYGGSCPTPTFDYWGQGTQVTVSSGGGSQVQLQESGGGSVQAGGSLRLSCAASGYTYSSGCMGWFRQAPGKEREAVAAINSDGSTSYADSVKGRFTISKDNAKNTLYLQMNSLKPEDTAMYYCAAEPYCSGGYPRWSVAEFGYWGQGTQVTVSSASHHHHHH
B11: IL10R binding molecule of SEQ ID NO: 287 (bispecific antibody)
chain: QVQLQESGGGSVQAGGSLRLSCTVSGYTYSSNCMGWFRQAPGKEREGVATIYTGGGNTYYADSVKGRFTISQDNAKNTVYLQMNNLKPEDTAMYYCAAEPLSRVYGGSCPTPTFDYWGQGTQVTVSSGGGSQVQLQESGGGSVQAGGSLRLSCTVSRYTASVNYMGWFRQAPGKEREGVATIFTGAGTTYYANSVKGRFTISRDNAKNTAYLQMNSLKPEDTAIYYCAVDFRGGLLYRPAYEYTYRGQGTQVTVSSASHHHHHH
B12: IL10R binding molecule of SEQ ID NO: 282 (bispecific antibody)
chain: QVQLQESGGGSVQAGGSLRLSCAVSGYAYSTYCMGWFRQAPGKEREGVAAIDSGGSTSYADSVKGRFTISKDNAKNTLYLRMNSLKPEDTAMYYCAAVPPPPDGGSCLFLGPEIKVSKADFRYWGQGTQVTVSSGGGSQVQLQESGGGSVQAGGSLRLSCAASGYSYSSYCMGWFRQAPGKEREGVATIDSDGMTRYADSVKGRFTISKDNAKNTLYLQMNSLKPEDTAMYYCAAPLYDCDSGAVGRNPPYWGQGTQVTVSSASHHHHHH
B13: IL10R binding molecule of SEQ ID NO: 281 (bispecific antibody)
chain: QVQLQESGGGSVQAGGSLRLSCAVSGYAYSTYCMGWFRQAPGKEREGVAAIDSGGSTSYADSVKGRFTISKDNAKNTLYLRMNSLKPEDTAMYYCAAVPPPPDGGSCLFLGPEIKVSKADFRYWGQGTQVTVSSGGGSQVQLQESGGGSVEAGGSLRLSCAASGYTHSSYCMGWFRQAPGKEREGVAAIDVDGSTTYADSVKGRFTISKDNAKNTLYLQMNSLKPEDTGMYYCAAEFADCSSNYFLPPGAVRYWGQGTQVTVSSASHHHHHH
B14: IL10R binding molecule of SEQ ID NO: 257 (bispecific antibody)
chain: QVQLQESGGGSVQAGGSLRLSCAASRYLYSIDYMAWFRQSPGKEREPVAVIYTASGATFYPDSVKGRFTISQDNAKMTVYLQMNSLKSEDTAMYYCAAVRKTDSYLFDAQSFTYWGQGTQVTVSSGGGSQVQLQESGGGSVQAGGSLRLSCAASGYTYSSYCMGWFRQAPGKEREGVAHIDSDGSTSYADSVKGRFTISKDNAKNTLYLQMNSLKPEDTAMYYCAADPIPGPGYCDGGPNKYWGQGTQVTVSSASHHHHHH
B15: IL10R binding molecule of SEQ ID NO: 291 (bispecific antibody)
chain: QVQLQESGGGSVQAGGSLRLSCGASGYTYSSYCMGWFRQVPGKEREGVAVIDSDGSTSYADSVKGRFTISKDNGKNTLYLQMNSLKPEDTAMYYCAADLGHYRPPCGVLYLGMDYWGKGTQVTVSSGGGSQVQLQESGGGSVQAGGSLRLSCAASGYTYSSGCMGWFRQAPGKEREAVAAINSDGSTSYADSVKGRFTISKDNAKNTLYLQMNSLKPEDTAMYYCAAEPYCSGGYPRWSVAEFGYWGQGTQVTVSSASHHHHHH

In the assay the target is T1, human IL-10 receptor (hIL-10R alpha and …). The experiment in a line: cell-based or functional assay.
For the molecule B1, the “Abs 630 (25 nM)” value was 0.46 Abs 630 and the “Abs 630 (100 nM)” value amounted to 0.39 Abs 630.

For the molecule B2, the “Abs 630 (25 nM)” value came out at 0.5 Abs 630 and the “Abs 630 (100 nM)” value is 0.44 Abs 630.

Turning to B3, the “Abs 630 (25 nM)” value came to 0.48 Abs 630 and the “Abs 630 (100 nM)” value came to 0.39 Abs 630.

Regarding B4, the “Abs 630 (25 nM)” value worked out at 0.49 Abs 630 and the “Abs 630 (100 nM)” value is 0.37 Abs 630.

On to B5, for which the “Abs 630 (25 nM)” value was 0.48 Abs 630 and the “Abs 630 (100 nM)” value amounted to 0.39 Abs 630.

On to B6, for which the “Abs 630 (25 nM)” value was 0.49 Abs 630 and the “Abs 630 (100 nM)” value turned out to be 0.37 Abs 630.

Consider B7, for which the “Abs 630 (25 nM)” value was 0.49 Abs 630 and the “Abs 630 (100 nM)” value is 0.39 Abs 630.

As for B8, the “Abs 630 (25 nM)” value was found to be 0.48 Abs 630 and the “Abs 630 (100 nM)” value amounted to 0.39 Abs 630.

For the molecule B9, the “Abs 630 (25 nM)” value came to 0.49 Abs 630 and the “Abs 630 (100 nM)” value came out at 0.38 Abs 630.

Turning to B10, the “Abs 630 (25 nM)” value was found to be 0.45 Abs 630 and the “Abs 630 (100 nM)” value worked out at 0.34 Abs 630.

On to B11, for which the “Abs 630 (25 nM)” value was determined as 0.9 Abs 630 and the “Abs 630 (100 nM)” value stood at 0.51 Abs 630.

With B12, the “Abs 630 (25 nM)” value amounted to 0.44 Abs 630 and the “Abs 630 (100 nM)” value came to 0.36 Abs 630.

Regarding B13, the “Abs 630 (25 nM)” value was found to be 0.66 Abs 630 and the “Abs 630 (100 nM)” value was determined as 0.69 Abs 630.

As to B14, the “Abs 630 (25 nM)” value amounted to 0.45 Abs 630 and the “Abs 630 (100 nM)” value was 0.36 Abs 630.

On to B15, for which the “Abs 630 (25 nM)” value was found to be 1.73 Abs 630 and the “Abs 630 (100 nM)” value turned out to be 0.59 Abs 630.
